Results as given in US20230357447A1 (JANUX THERAPEUTICS, published 2023).

target: T1, Anti-CD28 scFv (VH-linker 1-VL) (biotinylated for capture on neutravidin plates); assay: phage ELISA, scFv captured on plate;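 also: crude clonal phage supernatants added to wells preincubated with soluble CD28 or with blocking buffer only, bound phage read out by HRP-linked anti-M13 antibody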
T1 sequence (scFv, as listed by the source): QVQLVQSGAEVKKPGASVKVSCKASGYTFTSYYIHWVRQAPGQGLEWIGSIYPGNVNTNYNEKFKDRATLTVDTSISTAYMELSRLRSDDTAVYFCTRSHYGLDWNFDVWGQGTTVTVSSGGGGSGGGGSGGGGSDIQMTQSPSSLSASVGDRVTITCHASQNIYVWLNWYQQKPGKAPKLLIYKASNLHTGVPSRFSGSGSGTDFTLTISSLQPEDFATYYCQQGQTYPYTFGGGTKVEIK
Experimental: (§1) Clonal phage were harvested as crude supernatants and screened via standard enzyme linked immunosorbent assays (ELISAs). […] Prior to the addition of clonal phage, wells were incubated with blocking buffer and CD28 soluble protein or blocking buffer alone. Without washing or aspirating, clonal phage supernatants were then added to the wells and incubated for a short time. Wells were then washed followed by detection of bound phage using a horse radish peroxidase conjugated anti-M13 antibody.

| Binder | Phage binding ELISA CD28 scFv signal |
| --- | --- |
| MDWCPRPLWDMCFF [Phage-124] | 2.4 |
| MDWCPKHLWHQCFH [Phage-156] | 1.35 |
| MHWCPEYLWNECFA [Phage-148] | 1.69 |
| MDWCPRNMWTVCFL [Phage-211] | 1.12 |
| MDWCPRALWNECFA [Phage-127] | 2.38 |
| MDWCPIHLWNECFA [Phage-123] | 2.4 |
| MDWCPRSLWSYCFH [Phage-157] | 1.33 |
| MDWCPRDLWHVCFF [Phage-121] | 2.41 |
| LDWCPRDLWHVCFF [Phage-178] | 0.61 |
| LDWCPLNLWDLCYF [Phage-143] | 2.03 |
| MHWCPIYLWDECFN [Phage-136] | 2.23 |
| MHWCPRYLWDECFN [Phage-180] | 0.55 |
| MDWCPRYLWHMCYS [Phage-119] | 2.42 |
| MDWCPRYLWHECFH [Phage-137] | 2.19 |
| MDWCPRHLWYACFN [Phage-144] | 2.01 |
| MDWCPRDLWDQCYA [Phage-122] | 2.41 |
| MDWCPVILWDFCFN [Phage-142] | 2.03 |
| MHWCPLHLWNECYH [Phage-155] | 1.37 |
| MDWCPRDLWIECFF [Phage-128] | 2.37 |
| MDWCPRDLWNVCFA [Phage-154] | 1.38 |
| MDWCPRDLWAVCFA [Phage-149] | 1.67 |
| MDWCPRDLWNVCFN [Phage-169] | 0.74 |
| MDWCPRDLWDVCFA [Phage-139] | 2.16 |
| MDWCPRYLWFECFS [Phage-117] | 2.46 |
| MDWCPKYLWDKCFH [Phage-152] | 1.54 |
| MDWCPRYLWTECFF [Phage-158] | 1.26 |

| Binder | Phage binding ELISA CD28 scFv signal |
| --- | --- |
| MHWCPRDLWVVCFN [Phage-147] | 1.83 |
| MDWCPRSLWNVCFF [Phage-141] | 2.13 |
| MDWCPSYLWTVCFA [Phage-129] | 2.34 |
| MHWCPRALWHECFN [Phage-160] | 1.18 |
| MDWCPKFLWHECFS [Phage-135] | 2.28 |
| MDWCPRHLWDECFF [Phage-118] | 2.46 |
| MDWCPRHLWDLCFF [Phage-153] | 1.4 |
| MDWCPRFLWDECFF [Phage-133] | 2.28 |
| MDWCPRHLWDQCFA [Phage-161] | 1.12 |
| MDWCPRHLWDLCFA [Phage-166] | 0.925 |
| MDWCPRDLWHACFS [Phage-120] | 2.41 |
| MDWCPVSLWHVCFY [Phage-125] | 2.4 |
| MDWCPSYLWHECFA [Phage-134] | 2.28 |
| MDWCPRSLWIYCFN [Phage-131] | 2.34 |
| MDWCPMDLWDVCFN [Phage-140] | 2.15 |
| MDWCPRFLWNECFN [Phage-126] | 2.4 |
| MNWCPTDLWHECFN [Phage-162] | 1.09 |
| MDWCPRHLWSECFY [Phage-146] | 1.92 |
| MAWCPMNLWDQCFF [Phage-159] | 1.2 |
| MDWCPTYLWFECFN [Phage-132] | 2.33 |
| MDWCPKHLWIECFA [Phage-145] | 1.98 |
| MDWCPRYLWDACFF [Phage-130] | 2.34 |
| MDWCPTNLWHECFA [Phage-138] | 2.16 |
| MDWCPRHLWNVCFS [Phage-150] | 1.61 |
| MDWCPRHMWNVCFS [Phage-204] | 2.25 |
| MDFCPISLWHECFF [Phage-151] | 1.58 |

target: T1, Anti-CD28 scFv (VH-linker 1-VL); assay: phage ELISA, scFv captured on plate, competitor soluble CD28;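 also: crude clonal phage supernatants added to wells pre-incubated with soluble CD28 or with blocking buffer only as control, bound phage read out with HRP-linked anti-M13 antibody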
Experimental: as §1

| Binder | Phage binding ELISA CD28 scFv signal in presence of CD28 |
| --- | --- |
| MDWCPRPLWDMCFF [Phage-124] | 0.138 |
| MDWCPKHLWHQCFH [Phage-156] | 0.108 |
| MHWCPEYLWNECFA [Phage-148] | 0.092 |
| MDWCPRALWNECFA [Phage-127] | 0.375 |
| MDWCPIHLWNECFA [Phage-123] | 0.203 |
| MDWCPRSLWSYCFH [Phage-157] | 0.152 |
| MDWCPRDLWHVCFF [Phage-121] | 0.268 |
| LDWCPRDLWHVCFF [Phage-178] | 0.105 |
| LDWCPLNLWDLCYF [Phage-143] | 0.095 |
| MHWCPIYLWDECFN [Phage-136] | 0.193 |
| MHWCPRYLWDECFN [Phage-180] | 0.127 |
| MDWCPRYLWHMCYS [Phage-119] | 1.17 |
| MDWCPRYLWHECFH [Phage-137] | 0.308 |
| MDWCPRHLWYACFN [Phage-144] | 0.159 |
| MDWCPRDLWDQCYA [Phage-122] | 0.201 |
| MDWCPVILWDFCFN [Phage-142] | 0.173 |
| MHWCPLHLWNECYH [Phage-155] | 0.113 |
| MDWCPRDLWIECFF [Phage-128] | 0.137 |
| MDWCPRDLWNVCFA [Phage-154] | 0.145 |
| MDWCPRDLWAVCFA [Phage-149] | 0.089 |
| MDWCPRDLWNVCFN [Phage-169] | 0.108 |
| MDWCPRDLWDVCFA [Phage-139] | 0.28 |
| MDWCPRYLWFECFS [Phage-117] | 0.235 |
| MDWCPKYLWDKCFH [Phage-152] | 0.109 |
| MDWCPRYLWTECFF [Phage-158] | 0.244 |
| MHWCPRDLWVVCFN [Phage-147] | 0.112 |

| Binder | Phage binding ELISA CD28 scFv signal in presence of CD28 |
| --- | --- |
| MDWCPRSLWNVCFF [Phage-141] | 0.356 |
| MDWCPSYLWTVCFA [Phage-129] | 0.096 |
| MHWCPRALWHECFN [Phage-160] | 0.144 |
| MDWCPKFLWHECFS [Phage-135] | 0.142 |
| MDWCPRHLWDECFF [Phage-118] | 0.663 |
| MDWCPRHLWDLCFF [Phage-153] | 0.182 |
| MDWCPRFLWDECFF [Phage-133] | 0.246 |
| MDWCPRHLWDQCFA [Phage-161] | 0.144 |
| MDWCPRHLWDLCFA [Phage-166] | 0.096 |
| MDWCPRDLWHACFS [Phage-120] | 0.173 |
| MDWCPVSLWHVCFY [Phage-125] | 0.409 |
| MDWCPSYLWHECFA [Phage-134] | 0.198 |
| MDWCPRSLWIYCFN [Phage-131] | 0.401 |
| MDWCPMDLWDVCFN [Phage-140] | 0.263 |
| MDWCPRFLWNECFN [Phage-126] | 0.503 |
| MNWCPTDLWHECFN [Phage-162] | 0.095 |
| MDWCPRHLWSECFY [Phage-146] | 0.199 |
| MAWCPMNLWDQCFF [Phage-159] | 0.145 |
| MDWCPTYLWFECFN [Phage-132] | 0.224 |
| MDWCPKHLWIECFA [Phage-145] | 0.132 |
| MDWCPRYLWDACFF [Phage-130] | 0.168 |
| MDWCPTNLWHECFA [Phage-138] | 0.096 |
| MDWCPRHLWNVCFS [Phage-150] | 0.176 |
| MDWCPRHMWNVCFS [Phage-204] | 0.13 |
| MDFCPISLWHECFF [Phage-151] | 0.129 |
